1 molecule from publication PMC11503491 can be followed below.

The test deals with SARS-CoV-2 RBD (RWT), wild-type Wuhan Hu-1 receptor-binding domain, residues 319-533 (SARS-CoV-2 Wuhan Hu-1). Put plainly: BLI. For orientation: Biolayer interferometry detects binding as a change in optical thickness at a sensor tip.

B1: COVA2-15 (class 2 RBD-directed antibody) (antibody, V domains shown)
VH: QVQLLESGGGLVQPGGSLRLSCAASGFTFSSYAMSWVRQAPGKGLEWASAISGSGGSTYYADSVEGRFTISRDNSKNTLYLQMNSLRAEDTAVYYCAKDTGYCGDDCYIKLIRGGPDYWGQGTLVTVSS
VL: DIVMTQSPLSLPVTLGQPASISCRSSQSLVYSDGNTFLNWFQQRPGQSPRRLIYQVSNRDSGVPDRFSGSGSGTDFTLKISRVEAEDVGVYYCMQGTHWPRTFGQGTKLEIK
With B1, the dissociation rate constant (koff) – broadly, the first-order rate constant of dissociation – worked out at 0.0025 s⁻¹.
